Residue numbers refer to the chain shown, from its start. Blank lines part the entries; values can stand above or below the molecule they belong to.
Assays:
[1] = biological target: T1, FGFR1c and the cofactor β-Klotho (Homo sapiens, UniProt P11362+Q86Z14); experiment: dual-luciferase reporter gene assay in iLite FGF21 assay ready cells; assay type: cell-based
T1 construct: host or cells: iLite FGF21 assay ready cells (genetically engineered reporter gene cell line)
Description: iLite FGF21 assay ready cells (purchased from SAVR) is a genetically engineered reporter gene cell line that responds to signals downstream to FGF21 agonism through the expression of firefly luciferase. The receptor FGFR1c and the cofactor β-Klotho were co-overexpressed on the surface of iLite FGF21 assay ready cells and have undergone genetic optimization to enhance sensitivity, such that FGF21 will cause an increase in luciferase expression in a dose-response manner. The luciferase activity detection kit was purchased from Promega (catalog number #E2980).
iLite FGF21 assay ready cells were cultured adherently in basal medium (DMEM Gluta Max, purchased from Gibco) containing 10% fetal bovine serum (FBS, purchased from Gibco) and 1% penicillin/streptomycin (purchased from Gibco). For the activity determination experiment, […] cells per well and test samples such as FGF21 mutant proteins and FGF21 conjugate molecules modified with albumin-binding agent were added to all-white 96-well culture plates (purchased from Corning), and the chemiluminescence values were detected in a microplate reader according to the instructions of the luciferase activity detection kit. Finally, the half-maximal effective concentration (EC50) values of the tested samples were obtained by means of four-parameter fitting.

[2] = test system: high-fat diet-induced db/db mice; experiment: pharmacodynamic test in db/db mice induced by high-fat diet (NASH model); assay type: in vivo; conditions: subcutaneous injection once every three days, 6 weeks, liver sections, hematoxylin-eosin staining
Description: Establishment of a db/db mouse model induced by high-fat diet: Male db/db mice, 8 weeks old, were adaptively fed with a standard diet for 2-3 days, after which all feed was replaced with 60% high-fat feed for rearing. After 3 weeks of high-fat feed feeding, the NASH model could be obtained. Administration: N = 6, subcutaneous injection of Vehicle and protein analogues (5 or 20 nmol/kg) was given once every three days, with an administration period of 6 weeks.
At the end of the administration, liver tissue sections were taken for hematoxylin-eosin staining to detect the effect of protein analogs on the non-alcoholic fatty liver disease activity score (NAS score) in high-fat diet-induced db/db mice.

[3] = pharmacokinetic test in mice; assay type: in vivo; conditions: 1 mg/kg, subcutaneous injection, plasma, human FGF21 ELISA
Procedure: (§1) The pharmacokinetic properties of protein analogs can be tested in mice or minpigs.
(§2) Mice experiment (N = 3): The injection dose was 1 mg/kg, and the injection method was subcutaneous injection. The blood-collection time points for plasma samples were 0.08, 0.25, 0.5, 1, 2, 4, 6, 8, 12, 24, 48, and 72 hours. The blood was collected into EDTA·2K-coated test tubes (which must be temporarily stored on ice) and centrifuged at 1200 × g for 10 minutes at 4°C. Subsequently, the plasma was transferred to Micronic tubes and stored at -20°C. The human FGF21 detection ELISA kit (RD191108200R) produced by Biovendor was used to monitor the blood drug concentration.

[4] = pharmacokinetic test in minipigs; assay type: in vivo; conditions: 1 mg/kg, subcutaneous injection, plasma, human FGF21 ELISA
Procedure: as §1
as §2, with “Minipig” for “Mice”, “0.083,” for “0.08,”, “72, 96, 120, 144, 168, 192, 216, 240, 264, 288 h.” for “and 72 hours.”, “(CAT: RD191108200R)” for “(RD191108200R)”

[5] = Example 13, four-parameter fitting
[6] = Example 6, four-parameter fitting

T1 sequence (P11362 22-822): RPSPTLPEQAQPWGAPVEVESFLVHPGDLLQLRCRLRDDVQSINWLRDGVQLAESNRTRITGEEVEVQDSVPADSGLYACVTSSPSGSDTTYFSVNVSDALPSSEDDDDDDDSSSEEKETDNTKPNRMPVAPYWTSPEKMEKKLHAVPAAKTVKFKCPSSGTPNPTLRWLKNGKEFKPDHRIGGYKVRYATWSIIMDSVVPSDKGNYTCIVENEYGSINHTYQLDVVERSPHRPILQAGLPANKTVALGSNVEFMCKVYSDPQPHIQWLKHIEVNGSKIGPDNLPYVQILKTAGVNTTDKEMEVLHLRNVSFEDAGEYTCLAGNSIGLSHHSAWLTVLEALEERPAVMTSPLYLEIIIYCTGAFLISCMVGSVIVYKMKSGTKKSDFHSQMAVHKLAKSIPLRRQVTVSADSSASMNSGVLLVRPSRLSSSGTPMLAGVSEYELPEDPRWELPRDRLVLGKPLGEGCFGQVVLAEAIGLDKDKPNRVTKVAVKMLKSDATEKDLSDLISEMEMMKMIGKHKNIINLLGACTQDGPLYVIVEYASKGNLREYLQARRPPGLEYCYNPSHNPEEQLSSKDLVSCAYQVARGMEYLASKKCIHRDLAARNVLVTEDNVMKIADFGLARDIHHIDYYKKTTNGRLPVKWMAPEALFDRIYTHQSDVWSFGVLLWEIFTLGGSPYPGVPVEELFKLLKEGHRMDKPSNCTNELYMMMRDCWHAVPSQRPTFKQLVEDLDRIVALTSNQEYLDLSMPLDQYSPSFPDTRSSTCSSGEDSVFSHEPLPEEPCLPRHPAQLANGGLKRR
T1 sequence (Q86Z14 whole entry): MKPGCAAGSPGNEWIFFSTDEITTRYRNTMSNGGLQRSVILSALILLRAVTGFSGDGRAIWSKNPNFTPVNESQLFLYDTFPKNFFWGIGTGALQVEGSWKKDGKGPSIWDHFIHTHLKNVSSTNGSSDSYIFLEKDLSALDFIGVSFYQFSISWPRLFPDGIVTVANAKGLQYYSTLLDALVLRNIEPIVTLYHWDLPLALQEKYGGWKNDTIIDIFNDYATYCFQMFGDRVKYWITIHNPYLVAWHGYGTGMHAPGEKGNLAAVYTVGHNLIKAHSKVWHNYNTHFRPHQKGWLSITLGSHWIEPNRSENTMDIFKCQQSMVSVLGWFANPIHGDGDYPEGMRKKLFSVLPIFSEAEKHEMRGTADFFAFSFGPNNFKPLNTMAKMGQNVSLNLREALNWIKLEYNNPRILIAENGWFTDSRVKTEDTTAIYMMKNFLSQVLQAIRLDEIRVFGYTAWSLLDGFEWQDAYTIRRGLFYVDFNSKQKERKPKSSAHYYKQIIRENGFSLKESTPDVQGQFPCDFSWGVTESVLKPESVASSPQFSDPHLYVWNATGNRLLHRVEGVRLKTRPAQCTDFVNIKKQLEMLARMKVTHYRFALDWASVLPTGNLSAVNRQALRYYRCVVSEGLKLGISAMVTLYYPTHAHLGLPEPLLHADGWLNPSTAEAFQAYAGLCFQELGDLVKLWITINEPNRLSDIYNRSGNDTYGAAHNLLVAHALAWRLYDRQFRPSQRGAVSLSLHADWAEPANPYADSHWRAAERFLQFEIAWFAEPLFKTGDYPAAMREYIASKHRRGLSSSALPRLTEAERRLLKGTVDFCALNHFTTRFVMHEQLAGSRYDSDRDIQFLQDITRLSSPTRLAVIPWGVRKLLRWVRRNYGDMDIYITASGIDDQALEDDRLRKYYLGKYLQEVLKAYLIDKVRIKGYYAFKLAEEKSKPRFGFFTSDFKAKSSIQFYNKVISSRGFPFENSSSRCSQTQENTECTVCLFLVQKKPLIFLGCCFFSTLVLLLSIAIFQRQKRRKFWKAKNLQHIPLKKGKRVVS

B1: Compound 12.1: Fatty acid-modified PAS-FGF21 dimer: PAS15FGF21 (SEQ ID NO: 13) modified by the side chain of Example 8.5 (conjugate)
chain: SPCASPAAPAPASPAAHPIPDSSPLLQFGGQVRQRYLYTDDAQQTEAHLEIREDGTVGGAADQSPESLLQLKALKPGVIQILGVKTSRFLCQRPDGALYGSLHFDPEACSFRERLLEDGYNVYQSEAHGLPLHLPGNKSPHRDPAPRGPARFLPLPGLPPAPPEPPGILAPQPPDVGSSDPLSMVGGSQGRSPSYES
modifications: dimer; fatty acid side chain of Example 8.5
- EC50 [1, 5]: 0.09 nM
- NAS score ([2]; 5 nmol/kg): 3.83 ± 0.98
- NAS score ([2]; 20 nmol/kg): 3.33 ± 0.82

B3: Compound 5.7: FGF21D46C mutant (SEQ NO: 7) modified by the albumin-binding agent of Example 2.2 (conjugate)
chain: HPIPDSSPLLQFGGQVRQRYLYTDDAQQTEAHLEIREDGTVGGAACQSPESLLQLKALKPGVIQILGVKTSRFLCQRPDGALYGSLHFDPEACSFRERLLEDGYNVYQSEAHGLPLHLPGNKSPHRDPAPRGPARFLPLPGLPPAPPEPPGILAPQPPDVGSSDPLSMVGGSQGRSPSYES
modifications: albumin-binding agent conjugated
- EC50 [1, 6]: 1.06 nM
- half-life [3]: 15.9 h

B4: Compound 5.15: FGF21H125C mutant (SEQ NO: 9) modified by the albumin-binding agent of Example 2.4 (conjugate)
chain: B3 chain with C46D, H125C
modifications: albumin-binding agent of Example 2.4
- EC50 [1, 6]: 0.47 nM
- half-life [3]: 14.1 h

B7: Compound 12.6: Fatty acid-modified PAS-FGF21 dimer: PAS200FGF21 (SEQ ID NO: 17) as printed, modified by the side chain of Example 8.6 (conjugate)
chain: SPCASPAAPAPASPAAPAPSAPAAASAAAPAAASAAASAPSAASAAASPAAPSAPPAAASPAAPSAPPAAASPAAPAPASPAASAPSAPAAASPAAPAPASPAAPAPSAPAAASAAAPAAASAAASAPSASAAASAAAPAAASAAASAPSAASSAASPAAPSAPPAAASPAAPSAPPAAASPAAPAPASPAAPAPSAPAAAHPIPDSSPLLQFGGQVRQRYLYTDDAQQTEAHLEIREDGTVGGAADQSPESLLQLKALKPGVIQILGVKTSRFLCQRPDGALYGSLHFDPEACSFRERLLEDGYNVYQSEAHGLPLHLPGNKSPHRDPAPRGPARFLPLPGLPPAPPEPPGILAPQPPDVGSSDPLSMVGGSQGRSPSYES
modifications: dimer; fatty acid side chain of Example 8.6
- half-life [4]: 61.3 ± 1.1 h

The next lines start with results.

- EC50 [1, 5]: 0.11 nM
B2: Compound 12.3: Fatty acid-modified PAS-FGF21 dimer: PAS50FGF21 (SEQ ID NO: 15) modified by the side chain of Example 8.5 (conjugate)
chain: SPCASPAAPAPASPAAPAPSAPAAASAAAPAAASAAASAPSAASAAASPAAHPIPDSSPLLQFGGQVRQRYLYTDDAQQTEAHLEIREDGTVGGAADQSPESLLQLKALKPGVIQILGVKTSRFLCQRPDGALYGSLHFDPEACSFRERLLEDGYNVYQSEAHGLPLHLPGNKSPHRDPAPRGPARFLPLPGLPPAPPEPPGILAPQPPDVGSSDPLSMVGGSQGRSPSYES
modifications: dimer; fatty acid side chain of Example 8.5
- NAS score ([2]; 5 nmol/kg): 4.33 ± 1.37
- NAS score ([2]; 20 nmol/kg): 3.00 ± 0.89

- EC50 [1, 5]: 0.13 nM
B5: Compound 12.2: Fatty acid-modified PAS-FGF21 dimer: PAS30FGF21 (SEQ ID NO: 14) modified by the side chain of Example 8.5 (conjugate)
chain: SPCASPAAPAPASPAAPAPSAPAAASAAAPAHPIPDSSPLLQFGGQVRQRYLYTDDAQQTEAHLEIREDGTVGGAADQSPESLLQLKALKPGVIQILGVKTSRFLCQRPDGALYGSLHFDPEACSFRERLLEDGYNVYQSEAHGLPLHLPGNKSPHRDPAPRGPARFLPLPGLPPAPPEPPGILAPQPPDVGSSDPLSMVGGSQGRSPSYES
modifications: dimer; fatty acid side chain of Example 8.5
- half-life [4]: 65.9 ± 3.8 h
- NAS score ([2]; 5 nmol/kg): 4.33 ± 1.03
- NAS score ([2]; 20 nmol/kg): 3.40 ± 1.14

- EC50 [1, 5]: 0.11 nM
B6: Compound 12.4: Fatty acid-modified PAS-FGF21 dimer: PAS100FGF21 (SEQ ID NO: 16) modified by the side chain of Example 8.5 (conjugate)
chain: SPCASPAAPAPASPAAPAPSAPAAASAAAPAAASAAASAPSAASAAASPAAPSAPPAAASPAAPSAPPAAASPAAPAPASPAASAPSAPAAASPAAPAPASHPIPDSSPLLQFGGQVRQRYLYTDDAQQTEAHLEIREDGTVGGAADQSPESLLQLKALKPGVIQILGVKTSRFLCQRPDGALYGSLHFDPEACSFRERLLEDGYNVYQSEAHGLPLHLPGNKSPHRDPAPRGPARFLPLPGLPPAPPEPPGILAPQPPDVGSSDPLSMVGGSQGRSPSYES
modifications: dimer; fatty acid side chain of Example 8.5
- half-life [4]: 75.4 ± 9.4 h

From patent EP4700044A1, “PROTEIN ANALOGUE AND USE THEREOF” (Shanghai Duomirui Biotechnology., Ltd., priority 2023, dated 2024)
